In publication PMC6727773 (Molecular Biology of the Cell, 2019):

Molecular target: T1, His-MPDZ-PDZ1-4 (aa 1-700) WT (human, UniProt O75970-3 1-700)
T1 sequence (looked up): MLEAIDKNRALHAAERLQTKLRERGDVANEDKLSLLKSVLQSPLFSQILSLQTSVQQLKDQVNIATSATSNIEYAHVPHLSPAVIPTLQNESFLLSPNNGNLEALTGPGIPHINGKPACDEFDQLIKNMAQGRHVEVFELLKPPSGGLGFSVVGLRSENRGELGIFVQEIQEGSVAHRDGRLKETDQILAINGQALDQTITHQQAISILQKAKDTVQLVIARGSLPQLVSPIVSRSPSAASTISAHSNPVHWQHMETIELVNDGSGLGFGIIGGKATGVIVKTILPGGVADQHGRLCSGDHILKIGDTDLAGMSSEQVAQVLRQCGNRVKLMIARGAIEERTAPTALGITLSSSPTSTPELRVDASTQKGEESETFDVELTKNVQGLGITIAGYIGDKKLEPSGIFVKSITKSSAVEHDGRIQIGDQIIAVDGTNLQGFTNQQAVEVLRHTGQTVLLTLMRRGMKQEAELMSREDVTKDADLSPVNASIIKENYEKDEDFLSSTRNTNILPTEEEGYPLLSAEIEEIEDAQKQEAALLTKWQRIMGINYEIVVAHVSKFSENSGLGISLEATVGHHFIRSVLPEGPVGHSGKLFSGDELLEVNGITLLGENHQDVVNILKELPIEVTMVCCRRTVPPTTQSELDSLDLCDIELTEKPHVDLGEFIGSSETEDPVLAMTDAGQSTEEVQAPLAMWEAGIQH
Assay: pull-down

- binding result: binds
B1: GST-DAPLE (aa 1908-2028) (domain or fragment, human, UniProt Q9P219 1908-2028, looked up)
chain: IATAGAGAAAAGSGSNSQLLHFSPAAAPAARTKPKAPPRSGEVATITPVRAGLSLSEGDGVPGQGCSEGLPAKSPGRSPDLAPHLGRALEDCSRGSVSKSSPASPEPGGDPQTVWYEYGCV
